# Test results reported in IntAct's records for PubMed 17891150.
# Biological target: TNRC6B, Q9UPQ9-2
# Sequence (Q9UPQ9 other isoform, or with tags, fused parts or gaps): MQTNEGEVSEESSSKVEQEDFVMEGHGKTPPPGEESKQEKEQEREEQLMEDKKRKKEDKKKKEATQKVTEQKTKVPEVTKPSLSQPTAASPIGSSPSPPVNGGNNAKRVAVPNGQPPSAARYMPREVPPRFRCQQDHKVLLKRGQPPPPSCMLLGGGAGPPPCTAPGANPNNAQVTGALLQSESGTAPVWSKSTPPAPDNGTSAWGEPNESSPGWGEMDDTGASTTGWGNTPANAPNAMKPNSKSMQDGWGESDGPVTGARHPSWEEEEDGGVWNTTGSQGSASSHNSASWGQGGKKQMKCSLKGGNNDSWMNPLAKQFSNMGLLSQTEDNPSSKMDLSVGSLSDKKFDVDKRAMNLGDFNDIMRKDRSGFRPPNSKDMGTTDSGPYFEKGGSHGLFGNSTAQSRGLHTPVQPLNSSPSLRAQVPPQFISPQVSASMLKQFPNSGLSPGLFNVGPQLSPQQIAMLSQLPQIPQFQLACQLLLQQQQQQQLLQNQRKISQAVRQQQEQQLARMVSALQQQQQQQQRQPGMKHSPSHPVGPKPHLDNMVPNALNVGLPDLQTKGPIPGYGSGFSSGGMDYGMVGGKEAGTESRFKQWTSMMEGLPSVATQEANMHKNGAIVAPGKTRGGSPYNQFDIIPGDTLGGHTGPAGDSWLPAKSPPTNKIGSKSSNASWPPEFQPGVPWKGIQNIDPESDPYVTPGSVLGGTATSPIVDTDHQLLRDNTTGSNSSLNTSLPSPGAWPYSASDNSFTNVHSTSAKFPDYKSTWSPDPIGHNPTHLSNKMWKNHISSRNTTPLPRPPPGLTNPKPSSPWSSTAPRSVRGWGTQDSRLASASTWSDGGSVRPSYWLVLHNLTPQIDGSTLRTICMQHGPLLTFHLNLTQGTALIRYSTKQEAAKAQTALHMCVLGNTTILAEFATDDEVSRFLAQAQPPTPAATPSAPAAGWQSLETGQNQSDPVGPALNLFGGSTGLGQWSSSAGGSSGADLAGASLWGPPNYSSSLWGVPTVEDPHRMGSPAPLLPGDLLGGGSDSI
# Chain of Protein argonaute-2 (Homo sapiens), Q9UKV8 K533A (Q9UKV8 whole entry K533A): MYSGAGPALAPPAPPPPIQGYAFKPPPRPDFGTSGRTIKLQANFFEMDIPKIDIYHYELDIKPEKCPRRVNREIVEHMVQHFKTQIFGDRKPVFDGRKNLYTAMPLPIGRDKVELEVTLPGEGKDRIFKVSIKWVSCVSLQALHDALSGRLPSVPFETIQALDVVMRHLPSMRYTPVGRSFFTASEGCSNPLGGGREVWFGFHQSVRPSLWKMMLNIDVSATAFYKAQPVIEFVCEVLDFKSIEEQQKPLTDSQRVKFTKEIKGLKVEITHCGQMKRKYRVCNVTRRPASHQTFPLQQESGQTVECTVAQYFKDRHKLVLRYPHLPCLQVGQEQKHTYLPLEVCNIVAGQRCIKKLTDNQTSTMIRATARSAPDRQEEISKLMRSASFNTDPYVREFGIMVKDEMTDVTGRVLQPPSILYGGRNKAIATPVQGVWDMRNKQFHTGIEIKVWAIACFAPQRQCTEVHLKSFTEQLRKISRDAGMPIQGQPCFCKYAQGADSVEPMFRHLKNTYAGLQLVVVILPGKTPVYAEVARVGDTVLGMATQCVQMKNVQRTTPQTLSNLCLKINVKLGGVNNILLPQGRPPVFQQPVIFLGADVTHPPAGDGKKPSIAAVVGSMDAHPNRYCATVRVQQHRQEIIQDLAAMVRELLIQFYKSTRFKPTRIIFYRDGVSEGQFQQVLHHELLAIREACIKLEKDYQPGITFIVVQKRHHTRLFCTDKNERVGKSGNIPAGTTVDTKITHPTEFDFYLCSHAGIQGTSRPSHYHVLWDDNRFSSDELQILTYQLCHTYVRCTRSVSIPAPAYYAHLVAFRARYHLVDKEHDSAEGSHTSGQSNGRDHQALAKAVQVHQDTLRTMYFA
# Chain of Protein argonaute-2 (Homo sapiens), Q9UKV8 V615A (Q9UKV8 whole entry V615A): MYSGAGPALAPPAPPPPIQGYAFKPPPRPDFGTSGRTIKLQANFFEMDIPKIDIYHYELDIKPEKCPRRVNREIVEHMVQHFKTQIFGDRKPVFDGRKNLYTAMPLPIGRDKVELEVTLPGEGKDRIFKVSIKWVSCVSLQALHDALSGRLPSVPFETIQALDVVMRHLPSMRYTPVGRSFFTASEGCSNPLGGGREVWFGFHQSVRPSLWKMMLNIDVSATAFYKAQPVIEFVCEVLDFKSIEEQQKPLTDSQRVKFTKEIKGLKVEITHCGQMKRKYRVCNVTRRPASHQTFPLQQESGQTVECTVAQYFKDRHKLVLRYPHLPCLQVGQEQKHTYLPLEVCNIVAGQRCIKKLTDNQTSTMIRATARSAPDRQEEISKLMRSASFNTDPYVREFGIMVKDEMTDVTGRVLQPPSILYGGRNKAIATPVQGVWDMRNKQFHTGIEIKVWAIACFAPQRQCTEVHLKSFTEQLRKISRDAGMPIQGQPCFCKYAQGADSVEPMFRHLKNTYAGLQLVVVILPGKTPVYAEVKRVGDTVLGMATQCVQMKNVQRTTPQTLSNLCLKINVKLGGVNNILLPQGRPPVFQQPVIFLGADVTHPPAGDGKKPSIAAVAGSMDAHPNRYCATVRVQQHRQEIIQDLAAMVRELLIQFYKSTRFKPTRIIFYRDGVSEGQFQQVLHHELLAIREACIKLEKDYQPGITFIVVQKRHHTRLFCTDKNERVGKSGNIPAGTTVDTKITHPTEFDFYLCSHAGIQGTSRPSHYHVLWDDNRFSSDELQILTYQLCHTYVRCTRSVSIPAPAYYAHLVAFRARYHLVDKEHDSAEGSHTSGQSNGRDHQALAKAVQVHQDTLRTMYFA
# Chain of Protein argonaute-2 (Homo sapiens), Q9UKV8 F587A (Q9UKV8 whole entry F587A): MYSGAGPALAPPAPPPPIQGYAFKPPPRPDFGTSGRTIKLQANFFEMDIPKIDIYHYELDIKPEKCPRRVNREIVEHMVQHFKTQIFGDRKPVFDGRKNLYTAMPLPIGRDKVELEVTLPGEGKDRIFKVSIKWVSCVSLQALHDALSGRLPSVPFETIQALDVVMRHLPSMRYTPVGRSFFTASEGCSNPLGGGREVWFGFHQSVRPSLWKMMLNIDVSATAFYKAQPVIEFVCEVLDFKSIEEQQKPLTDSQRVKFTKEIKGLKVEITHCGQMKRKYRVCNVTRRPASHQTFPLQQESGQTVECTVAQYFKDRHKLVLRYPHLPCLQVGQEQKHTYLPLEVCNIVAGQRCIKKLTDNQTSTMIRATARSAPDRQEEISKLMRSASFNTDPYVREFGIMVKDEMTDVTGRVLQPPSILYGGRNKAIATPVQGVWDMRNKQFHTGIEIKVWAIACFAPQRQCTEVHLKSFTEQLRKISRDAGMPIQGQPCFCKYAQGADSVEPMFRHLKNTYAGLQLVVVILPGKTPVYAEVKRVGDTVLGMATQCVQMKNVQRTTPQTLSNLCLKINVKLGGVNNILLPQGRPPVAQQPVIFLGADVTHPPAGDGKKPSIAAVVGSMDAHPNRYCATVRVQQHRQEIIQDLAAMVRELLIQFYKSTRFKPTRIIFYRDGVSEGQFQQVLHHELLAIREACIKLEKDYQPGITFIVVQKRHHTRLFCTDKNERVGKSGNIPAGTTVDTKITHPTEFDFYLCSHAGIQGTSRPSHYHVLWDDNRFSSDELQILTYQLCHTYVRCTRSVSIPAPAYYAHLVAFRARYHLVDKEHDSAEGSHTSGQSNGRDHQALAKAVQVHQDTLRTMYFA
# Chain of Protein argonaute-2 (Homo sapiens), Q9UKV8 Y625A (Q9UKV8 whole entry Y625A): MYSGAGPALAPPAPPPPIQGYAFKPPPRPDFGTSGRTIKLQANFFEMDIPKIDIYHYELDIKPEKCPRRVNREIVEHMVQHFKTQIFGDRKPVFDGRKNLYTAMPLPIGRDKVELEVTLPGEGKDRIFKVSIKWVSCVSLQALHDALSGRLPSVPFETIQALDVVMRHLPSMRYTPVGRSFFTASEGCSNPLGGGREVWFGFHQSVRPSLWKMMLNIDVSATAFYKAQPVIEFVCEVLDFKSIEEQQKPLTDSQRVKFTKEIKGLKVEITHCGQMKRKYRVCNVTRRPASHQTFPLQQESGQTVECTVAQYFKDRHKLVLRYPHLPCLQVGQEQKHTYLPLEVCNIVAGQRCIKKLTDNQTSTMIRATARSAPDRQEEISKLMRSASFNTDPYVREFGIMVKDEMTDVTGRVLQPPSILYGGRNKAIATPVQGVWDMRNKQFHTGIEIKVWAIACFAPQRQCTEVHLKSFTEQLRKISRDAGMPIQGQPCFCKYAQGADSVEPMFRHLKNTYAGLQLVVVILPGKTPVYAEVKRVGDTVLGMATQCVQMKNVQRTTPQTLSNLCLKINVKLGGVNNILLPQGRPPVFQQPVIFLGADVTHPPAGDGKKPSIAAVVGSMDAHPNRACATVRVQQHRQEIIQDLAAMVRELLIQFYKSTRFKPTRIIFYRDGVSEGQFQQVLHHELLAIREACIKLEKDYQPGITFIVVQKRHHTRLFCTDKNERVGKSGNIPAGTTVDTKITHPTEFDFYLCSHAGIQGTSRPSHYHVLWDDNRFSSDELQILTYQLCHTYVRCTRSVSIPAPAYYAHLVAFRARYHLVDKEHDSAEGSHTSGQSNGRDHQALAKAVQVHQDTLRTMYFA
row,Substance,effect of a mutation on the interaction
1,"Protein argonaute-2 (Homo sapiens), Q9UKV8 R583A",disrupting interaction
2,"Protein argonaute-2 (Homo sapiens), Q9UKV8 R812A",disrupting interaction
3,"Protein argonaute-2 (Homo sapiens), Q9UKV8 F858A",decreasing interaction
4,"Protein argonaute-2 (Homo sapiens), Q9UKV8 Q545A",disrupting interaction strength
5,"Protein argonaute-2 (Homo sapiens), Q9UKV8 R647A",disrupting interaction
6,"Protein argonaute-2 (Homo sapiens), Q9UKV8 Y805A",decreasing interaction
7,"Protein argonaute-2 (Homo sapiens), Q9UKV8 Y529A",disrupting interaction
8,"Protein argonaute-2 (Homo sapiens), Q9UKV8 V615A",decreasing interaction
9,"Protein argonaute-2 (Homo sapiens), Q9UKV8 F587A",decreasing interaction
10,"Protein argonaute-2 (Homo sapiens), Q9UKV8 I592A",disrupting interaction
11,"Protein argonaute-2 (Homo sapiens), Q9UKV8 V797A",disrupting interaction
12,"Protein argonaute-2 (Homo sapiens), Q9UKV8 F653A",disrupting interaction
13,"Protein argonaute-2 (Homo sapiens), Q9UKV8 Y625A",disrupting interaction
14,"Protein argonaute-2 (Homo sapiens), Q9UKV8 Y784A",decreasing interaction
15,"Protein argonaute-2 (Homo sapiens), Q9UKV8 K533A",disrupting interaction
16,"Protein argonaute-2 (Homo sapiens), Q9UKV8 Y749A",decreasing interaction
